Assay results published in US20120219565A1 (Merck Sharp & Dohme, published 2012).
“And” between values parts separate entries of the source, which are not always exact repeats. Identical values can stand only once.

Experiments:
[1] = target: Recombinant human TSLP (expressed in HEK293 cells) (human) (UniProt Q969D9); experiment: KinExA 3000, solution equilibrium, 25 °C, particles coated with biotinylated human TSLP
[2] = target: Recombinant human TSLP (expressed in HEK293 cells) (human) (UniProt Q969D9); experiment: SPR, BIAcore T100, TSLP immobilised on CM5, antibody injected, bivalent analyte model, room temperature
[3] = target: Cynomolgus monkey TSLP (expressed in HEK293 cells) (cynomolgus monkey); experiment: as above
[4] = target: Human TSLP purchased from R&D and expressed in E. coli (human) (UniProt Q969D9); experiment: cell-based or functional assay
[5] = target: Recombinant human TSLP (expressed in HEK293 cells) (human) (UniProt Q969D9); experiment: cell-based or functional assay
[6] = target: Cynomolgus monkey TSLP (expressed in HEK293 cells) (cynomolgus monkey); experiment: cell-based or functional assay
[7] = target: T1, Recombinant human TSLP (expressed in HEK293 cells) (human, UniProt Q969D9 29-159); experiment: KinExA 3000, solution equilibrium, 25 °C, particles coated with biotinylated human TSLP
T1 construct: In KinExA a biotinylated form coated the particles and the unlabelled form was in solution; also called hu TSLP; hTSLP

[8] = target: T1, Recombinant human TSLP (expressed in …); experiment: cell-based or functional assay
[9] = target: T2, Cynomolgus monkey TSLP (expressed in HEK293 cells) (cynomolgus monkey, UniProt A0A7N9CAT7 29-159); experiment: cell-based or functional assay
[10] = target: T3, Human TSLP purchased from R&D and expressed in E. coli (human, UniProt Q969D9 29-159); experiment: cell-based or functional assay
[11] = target: T3, Human TSLP purchased from R&D and …; experiment: SPR, BIAcore T100, R&D E. coli TSLP immobilised on CM5, antibody injected, bivalent analyte model, room temperature
[12] = target: T2, Cynomolgus monkey TSLP (expressed in …); experiment: SPR, BIAcore T100, TSLP immobilised on CM5, antibody injected, bivalent analyte model, room temperature
[13] = target: T2, Cynomolgus monkey TSLP (expressed in …); experiment: SPR, BIAcore T100, TSLP immobilised on CM5, antibody injected, bivalent analyte model, 37 °C
[14] = target: T3, Human TSLP purchased from R&D and …; experiment: SPR, BIAcore T100, R&D E. coli TSLP immobilised on CM5, antibody injected, bivalent analyte model, 37 °C

B1: Parental rat antibody 23B12 (antibody, from a related filing, V domains shown)
VH: EEKLQQSGDDLVRPGAAVKMSCKASGYIFTDYAMHWVKQRPGQGLEWIGTFIPLLDTSDYNQNFKGRATLTADKSSNTAYMELSRLTSEDSAVYYCARMGVTHSYVMDAWGQGASVTVSS
VL: DIVLTQSPATLSVTPGESVSLSCRASQPISISVHWFQQKSNESPRLLIKFASQSISGIPSRFSGSGSGTDFTLNINRVESEDFSVYYCQQTFSLPYTFGTGTKLELKR
Q: For B1, which Kd [1] is on record?
A: 0.0011 nM

Q: And the Kd [2]?
A: 0.141 nM and 0.13 nM

Q: And the Kd [3]?
A: 0.159 nM

Q: And the EC 50, inhibition of TSLP-induced proliferation of Ba/F3-TSLPR-IL7Ra cells [4]?
A: 0.083 mg/L

Q: And the EC 50, inhibition of TSLP-induced proliferation of Ba/F3-TSLPR-IL7Ra cells [5]?
A: 0.022 mg/L and 0.025 mg/L and 0.014 mg/L

Q: And the EC 50, inhibition of TSLP-induced proliferation of Ba/F3-TSLPR-IL7Ra cells [6]?
A: 0.064 mg/L and 0.122 mg/L and 0.054 mg/L

B2: Humanized anti hu TSLP mAb 23B12 (comprising the heavy chain of SEQ ID NO:11 and the light chain of SEQ ID NO:12 of the instant application) (antibody, human IgG1, kappa, V domains shown)
VH: QVQLVQSGAEVKKPGASVKVSCKASGYIFTDYAMHWVRQAPGQGLEWMGTFIPLLDTSDYAQKFQGRVTMTADTSTSTAYMELRSLRSDDTAVYYCARMGVTHSYVMDAWGQGTLVTVSS
VL: EIVLTQSPGTLSLSPGERATLSCRASQPISISVHWYQQKPGQAPRLLIYFASQSISGIPDRFSGSGSGTDFTLTISRLEPEDFAVYYCQQTFSLPYTFGQGTKVEIKR
notes: Vector deposited as ATCC PTA-10482; also called Antibody 4
Q: Which results are given for B2?
A: Kd [7]: 0.0032 nM; EC 50, inhibition of TSLP-induced proliferation of Ba/F3-TSLPR-IL7Ra cells [8]: 0.041 mg/L and 0.024 mg/L; EC 50, inhibition of TSLP-induced proliferation of Ba/F3-TSLPR-IL7Ra cells [9]: 0.117 mg/L and 0.077 mg/L and 0.158 mg/L and 0.067 mg/L; EC 50, inhibition of TSLP-induced proliferation of Ba/F3-TSLPR-IL7Ra cells [10]: 0.137 mg/L and 0.215 mg/L; Kd [11]: 0.339 nM; Kd [12]: 0.138 nM and 0.08 nM and 0.115 nM and 0.127 nM; Kd [13]: 0.381 nM; Kd [14]: 0.299 nM
